Source: PMC11189624

Columns and labels:
[1] = biological target: Mlph-ABD labelled with ATTO 488 NHS Ester dye (mouse) (UniProt Q91V27); test: MST; Monolith NT.115, 25 °C; Mlph-ABD labelled with ATTO 488 at 20 nM; two-fold dilution series (16) of Myo5a-MTD or Myo5a-MTDΔG from 50 uM; 50 mM Tris-HCl pH 7.8, 100 mM NaCl, 10 mM MgCl2, 0.05% Tween 20
[2] = biological target: Melanophilin GTBM (Mus musculus) (UniProt Q91V27); settings: cited from earlier work
Melanophilin GTBM (Mus musculus), sequence (Q91V27 176-201): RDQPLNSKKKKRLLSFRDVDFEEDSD

Myosin-5a GTD, sequence (Q99104 1469-1853): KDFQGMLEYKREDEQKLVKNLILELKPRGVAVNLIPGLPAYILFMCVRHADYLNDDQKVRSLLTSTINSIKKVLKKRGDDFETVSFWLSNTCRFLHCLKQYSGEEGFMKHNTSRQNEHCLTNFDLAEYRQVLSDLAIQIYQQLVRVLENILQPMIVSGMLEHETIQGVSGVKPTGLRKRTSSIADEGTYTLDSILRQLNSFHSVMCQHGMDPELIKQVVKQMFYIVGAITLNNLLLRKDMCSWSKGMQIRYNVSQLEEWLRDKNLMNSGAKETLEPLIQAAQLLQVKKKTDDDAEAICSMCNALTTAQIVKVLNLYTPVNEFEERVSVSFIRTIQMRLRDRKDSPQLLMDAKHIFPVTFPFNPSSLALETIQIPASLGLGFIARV
Mlph-ABD labelled with ATTO 488 NHS Ester dye (mouse), sequence (Q91V27 401-590): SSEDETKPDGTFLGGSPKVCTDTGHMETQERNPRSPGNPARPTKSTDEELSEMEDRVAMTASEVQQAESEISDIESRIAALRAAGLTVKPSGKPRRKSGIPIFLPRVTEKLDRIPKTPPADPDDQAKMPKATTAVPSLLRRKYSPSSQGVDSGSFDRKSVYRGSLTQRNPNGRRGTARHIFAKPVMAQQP

Substance | Kd [1] | Kd [2]
Flag-Myo5a-MTD (residues 1106–1467), bacterial-expressed (domain or fragment) | 562 nM | –
Myosin-5a GTD (from UniProt Q99104) | – | 1000 nM
